Measured values taken from patent US10752675B2, “Compounds for treating the remyelination blockade in diseases associated with the expression of HERV-W envelope protein” (GENEURO S.A., priority 2012, dated 2020).
“Also recorded” adds a separate entry of the source.

Assays:
[1] = tested on: MSRV-Env induced EAE in C57BL/6 mice; assay: EAE clinical score with intravenous MSRV-Env challenge, Example 3.B; format: in vivo
Excerpt: (§1) Animals were weighed and clinically scored 5 days per week according to the following criteria: 0=no signs; 1=tail paralysis or hyper-reflex of hind limb(s) or unilateral hind limb weakness; 2=bilateral hind limb or forelimb weakness; 3=plus unilateral paralysis or major deficit; 4=complete hind limb or forelimb paralysis; 5=plus partial paralysis or major deficit of opposite limbs; 6=moribund or dead. These were adapted from standard criteria, in order to reflect the more rapid induction of brain and cervical cord lesions with this model.
When not specified, all materials and methods were as described for Example 3A.
All mice received three injections s.c. on the neck at DO, on the dorsal flank at D7 and D14. Here, mice from Group A were injected with 200 μg/mouse of MOG and IFA only, without Env, thus constituting a negative control group without EAE in the present series (ctrl −). The positive control group with untretated EAE in the present series is represented by Group B (ctrl +). Other groups were injected with 200 μg of MOG/mouse+MSRV-ENV (60 μg)+IFA, with treatments as indicated in the above summarized presentation. […]
For Groups G and H receiving DMF, we have previously determined the volume of daily water consumption by each mouse and it has been realized that (in our condition), each mouse consumed around 3.5 ml drinking water per day. […]

[2] = tested on: MSRV-Env induced EAE in C57BL/6 mice; assay: Rotarod test, Example 3.B (MSRV-Env induced EAE); format: in vivo; conditions: GNbAC1 500 μg/mouse given alone, all relevant speeds (16, 26, 29 rpm)
Procedure: 1 day before each immunization, mice were transferred in their home cages, from the holding room to the experimental room. Mice were habituated to the experimental room for 15 min. Mice then received two trials at 10 increasing speed levels, ranging from 7 to 40 rpm. Individual delays before falling off the rotarod (for the two trials at each speed level) was recorded until 60 sec. Thus, training and performance on the Rotarod system were determined for each animal.
The ROTAROD test results are expressed as kinetics of the mean of individual scores for each group with SEM indicated by bars, for each test day and for each test speed within the discriminating range for neuromotor impairment in present conditions (16 to 29 rpm).
They are calculated for each individual mouse, for each test day and for each speed value, as the relative gain or loss of time on Rotarod (before falling), compared to the first test day at the same speed (D-7, before starting the disease induction in relevant groups). The value is calculated as “Time on Rotarod at dayX”−“Time at Day-7 for the same mouse at the same speed”. […]

[3] = Weight gain kinetics, Example 3.B; format: in vivo, mice
Procedure: Mice were weighed 3 times a week on Monday, Wednesday and Friday during all experiment.
All mice received three injections s.c. on the neck at DO, on the dorsal flank at D7 and D14. Here, mice from Group A were injected with 200 μg/mouse of MOG and IFA only, without Env, thus constituting a negative control group without EAE in the present series (ctrl −). The positive control group with untretated EAE in the present series is represented by Group B (ctrl +). Other groups were injected with 200 μg of MOG/mouse+MSRV-ENV (60 μg)+IFA, with treatments as indicated in the above summarized presentation. Treatments have been initiated on day 12 post immunization in their corresponding groups.
The clinical signs score and weight were evaluated regularly as described above. The EAE clinical score kinetics over the study period are represented in FIGS. 22, 23 and 24. The weight curves, indicating relative weight gain compared to the day before first injection of immunogens, are presented in FIGS. 25, 26 and 27.

[4] = tested on: MSRV-Env induced EAE in C57BL/6 mice; assay: EAE clinical score, Example 3.C (GNbAC1 and Sodium Fumarate); format: in vivo
Excerpt: as §1

B1: GNbAC1: recombinant humanized anti-Env IgG4 monoclonal antibody comprising the CDRs of SEQ ID No. 1 to 6 (antibody, chains of the INN, looked up, V domains shown)
VH: QVQLVQSGAEVKKPGSSVKVSCKASGYTFTDYEMHWVRQAPGQGLEWIGAVAPETGGTAYNQKFKGRATITADKSTSTAYMELSSLRSEDTAVYYCTSTVVPFAYWGQGTLVTVSS
VL: QIQLTQSPSSLSASVGDRVTITCSASSSVSYMYWYQQKPGKAPKAWIYRTSNLASGVPSRFSGSGSGTDYTLTISSLQPEDFATYYCQQYQSLPLTFGGGTKVEIK
EAE clinical score after iv MSRV-Env challenge (20 μg) ([1]; GNbAC1 200 μg at day 12, alone or with SMT (I.P. twice a week) or DMF (2 mg daily in drinking water)): transient clinical impairment
EAE clinical score after iv MSRV-Env challenge (20 μg) ([1]; GNbAC1 500 μg at day 12, alone or with SMT or DMF (2 mg daily in drinking water)): very efficient in conferring resistance; also recorded: best clinical efficiency
Rotarod, improvement of neurological deficit [2]: significantly the most efficient product
weight gain over the study period, endpoint ([3]; GNbAC1 200 μg): endpoints equivalent to mock-controls
weight gain over the study period, endpoint ([3]; GNbAC1 500 μg, alone or with DMF): best endpoint; also recorded: positive effect on the global health
EAE clinical score kinetics and endpoint ([4]; from day 12: GNbAC1 500 μg IP, Sodium Fumarate 10 mg daily in 3.5 ml drinking water, versus isotype control antibody): significant reversion of their clinical score curves; also recorded: equivalent and significantly good recovery at the end of the study
day from which clinical improvement appeared ([4]; treatment started day 12): 15 days
